{"source": "patent US5851528", "key": {"C3/C5 convertases [1]": {"biological_target": "C3/C5 convertases"}, "C3/C5 convertases [2]": {"biological_target": "C3/C5 convertases", "remark": "listed apart in the source"}, "[3]": {"biological_target": "C5 convertase (formed in human serum) (human)"}}}
{"substance": "soluble DAF (sDAF), soluble decay accelerating factor (from UniProt P08174)", "values": [{"measurement": "IC50, inhibition of classical pathway complement-mediated lysis of IgM-sensitized sheep RBC by human serum", "setting": "C3/C5 convertases [1]", "value": 100, "unit": "nM"}]}
{"substance": "soluble MCP (sMCP), soluble membrane cofactor protein recombinant protein (from UniProt P15529-3)", "values": [{"measurement": "IC50, inhibition of alternative pathway complement-mediated lysis of unsensitized guinea pig RBC by human serum", "setting": "C3/C5 convertases [2]", "value": 350, "unit": "nM"}, {"measurement": "IC50, inhibition of C5a production in human serum (competition radioimmunoassay for C5a desArg)", "setting": "[3]", "value": 5000, "unit": "nM"}, {"measurement": "IC50, inhibition of classical pathway complement-mediated lysis of IgM-sensitized sheep RBC by human serum", "setting": "C3/C5 convertases [1]", "value": 7000, "unit": "nM"}]}
{"substance": "mixture of sMCP + sDAF added together on an equal molar basis (pool or library)", "values": [{"measurement": "IC50, inhibition of classical pathway complement-mediated lysis of IgM-sensitized sheep RBC by human serum", "setting": "C3/C5 convertases [1]", "value": 200, "unit": "nM"}]}
{"substance": "CAB-2 (complement activation blocker-2), recombinant chimeric protein encoded by the MCP-DAF expression vector", "values": [{"measurement": "IC50, inhibition of alternative pathway complement-mediated lysis of unsensitized guinea pig RBC by human serum", "setting": "C3/C5 convertases [2]", "value": 100, "unit": "nM"}, {"measurement": "IC50, inhibition of C5a production in human serum (competition radioimmunoassay for C5a desArg)", "setting": "[3]", "value": 300, "unit": "nM"}, {"measurement": "IC50, inhibition of classical pathway complement-mediated lysis of IgM-sensitized sheep RBC by human serum", "setting": "C3/C5 convertases [1]", "value": 30, "unit": "nM"}]}
